From the supplement of paper PMC10065799, “High-throughput profiling of sequence recognition by tyrosine kinases and SH2 domains using bacterial peptide display” (eLife, 2023)

Columns and labels:
[1] = system: AncSZ; experiment: phosphorylation enrichment, bacterial display (enrichment ratio); higher = better substrate or ligand; peptides without Tyr show the background
[2] = molecular target: EPHB1 (UniProt P54762); experiment: as above
[3] = molecular target: EPHB2 (UniProt P29323); experiment: as above
[4] = molecular target: FGFR1 (UniProt P11362); experiment: as above
[5] = molecular target: FGFR3 (UniProt P22607); experiment: as above
[6] = system: Fer (mouse); experiment: as above
[7] = molecular target: Fes (UniProt P07332); experiment: as above
[8] = molecular target: Fyn (UniProt P06241); experiment: as above
[9] = molecular target: Hck (UniProt P08631); experiment: as above
[10] = molecular target: Jak2 (UniProt O60674); experiment: as above
[11] = molecular target: MERTK (UniProt Q12866); experiment: as above
[12] = system: c-Abl (mouse); experiment: as above
[13] = system: c-Src; experiment: as above
[14] = molecular target: Grb2 SH2 (UniProt P62993); experiment: SH2 binding enrichment of the phosphorylated peptide, bacterial display (enrichment ratio); higher = better substrate or ligand; peptides without Tyr show the background
[15] = molecular target: SHP2-C SH2; experiment: as above
[16] = molecular target: c-Src SH2; experiment: as above
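For SH2 binding enrichment of the phosphorylated peptide, bacterial display in this document: peptide library displayed on the E. coli surface as eCPX fusions, selected cells deep-sequenced, score is each peptide's frequency after selection divided by its frequency in the input.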
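For phosphorylation enrichment, bacterial display in this document: 11-residue human phosphosite peptides and single-mutation variants displayed on the E. coli surface, counted by deep sequencing, each peptide's frequency after selection divided by its frequency in the unselected input library; frequency after pTyr selection over input frequency; kinase dosed for 20-30% of maximal phosphorylation in three min.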

Chain of EPHB2 (P29323 whole entry, looked up): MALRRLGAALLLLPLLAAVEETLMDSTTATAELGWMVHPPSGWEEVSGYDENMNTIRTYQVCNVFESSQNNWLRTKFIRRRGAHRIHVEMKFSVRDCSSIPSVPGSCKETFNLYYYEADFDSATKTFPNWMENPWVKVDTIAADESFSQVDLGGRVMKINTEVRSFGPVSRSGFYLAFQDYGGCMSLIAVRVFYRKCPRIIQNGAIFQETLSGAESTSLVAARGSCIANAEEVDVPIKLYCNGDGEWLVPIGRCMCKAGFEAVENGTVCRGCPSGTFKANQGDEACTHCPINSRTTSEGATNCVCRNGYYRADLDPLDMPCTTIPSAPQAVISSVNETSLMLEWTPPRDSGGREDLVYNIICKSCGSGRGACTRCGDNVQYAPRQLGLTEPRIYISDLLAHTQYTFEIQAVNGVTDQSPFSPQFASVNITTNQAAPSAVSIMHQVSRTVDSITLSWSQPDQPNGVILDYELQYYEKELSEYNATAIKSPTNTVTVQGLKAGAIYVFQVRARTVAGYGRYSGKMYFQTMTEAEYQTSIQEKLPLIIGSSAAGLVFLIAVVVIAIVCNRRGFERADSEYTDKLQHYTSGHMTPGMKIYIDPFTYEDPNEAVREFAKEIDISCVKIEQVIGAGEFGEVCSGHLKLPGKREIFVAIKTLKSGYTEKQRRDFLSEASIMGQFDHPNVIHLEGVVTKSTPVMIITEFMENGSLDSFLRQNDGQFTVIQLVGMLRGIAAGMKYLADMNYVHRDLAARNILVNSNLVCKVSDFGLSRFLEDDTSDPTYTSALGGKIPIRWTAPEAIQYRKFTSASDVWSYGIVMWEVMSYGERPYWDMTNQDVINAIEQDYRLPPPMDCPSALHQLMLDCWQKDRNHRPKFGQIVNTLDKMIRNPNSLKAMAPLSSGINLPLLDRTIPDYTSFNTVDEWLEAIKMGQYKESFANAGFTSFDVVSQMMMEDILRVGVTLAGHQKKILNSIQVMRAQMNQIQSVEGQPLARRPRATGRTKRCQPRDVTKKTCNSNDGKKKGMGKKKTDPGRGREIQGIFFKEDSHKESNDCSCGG
Chain of Fes (P07332 whole entry, looked up): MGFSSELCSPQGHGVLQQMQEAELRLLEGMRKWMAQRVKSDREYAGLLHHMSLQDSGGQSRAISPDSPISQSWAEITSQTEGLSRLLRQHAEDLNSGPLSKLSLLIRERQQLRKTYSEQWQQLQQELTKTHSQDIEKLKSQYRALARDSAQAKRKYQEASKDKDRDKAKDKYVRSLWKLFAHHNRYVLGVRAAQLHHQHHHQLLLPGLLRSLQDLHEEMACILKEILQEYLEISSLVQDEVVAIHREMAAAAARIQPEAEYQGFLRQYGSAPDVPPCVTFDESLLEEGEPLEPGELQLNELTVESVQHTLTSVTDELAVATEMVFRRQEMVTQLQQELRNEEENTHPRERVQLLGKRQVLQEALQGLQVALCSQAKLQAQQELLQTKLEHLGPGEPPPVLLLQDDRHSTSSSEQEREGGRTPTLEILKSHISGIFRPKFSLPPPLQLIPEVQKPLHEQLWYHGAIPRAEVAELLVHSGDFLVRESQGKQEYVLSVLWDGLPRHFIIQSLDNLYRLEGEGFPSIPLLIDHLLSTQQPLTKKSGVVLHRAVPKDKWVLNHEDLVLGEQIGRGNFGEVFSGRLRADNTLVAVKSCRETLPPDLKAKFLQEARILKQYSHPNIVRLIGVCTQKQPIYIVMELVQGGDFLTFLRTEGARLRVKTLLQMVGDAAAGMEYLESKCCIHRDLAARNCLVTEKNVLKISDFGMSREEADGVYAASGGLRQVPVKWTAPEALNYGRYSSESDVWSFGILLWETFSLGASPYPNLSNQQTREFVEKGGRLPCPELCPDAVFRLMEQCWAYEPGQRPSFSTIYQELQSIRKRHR
Chain of EPHB1 (P54762 whole entry, looked up): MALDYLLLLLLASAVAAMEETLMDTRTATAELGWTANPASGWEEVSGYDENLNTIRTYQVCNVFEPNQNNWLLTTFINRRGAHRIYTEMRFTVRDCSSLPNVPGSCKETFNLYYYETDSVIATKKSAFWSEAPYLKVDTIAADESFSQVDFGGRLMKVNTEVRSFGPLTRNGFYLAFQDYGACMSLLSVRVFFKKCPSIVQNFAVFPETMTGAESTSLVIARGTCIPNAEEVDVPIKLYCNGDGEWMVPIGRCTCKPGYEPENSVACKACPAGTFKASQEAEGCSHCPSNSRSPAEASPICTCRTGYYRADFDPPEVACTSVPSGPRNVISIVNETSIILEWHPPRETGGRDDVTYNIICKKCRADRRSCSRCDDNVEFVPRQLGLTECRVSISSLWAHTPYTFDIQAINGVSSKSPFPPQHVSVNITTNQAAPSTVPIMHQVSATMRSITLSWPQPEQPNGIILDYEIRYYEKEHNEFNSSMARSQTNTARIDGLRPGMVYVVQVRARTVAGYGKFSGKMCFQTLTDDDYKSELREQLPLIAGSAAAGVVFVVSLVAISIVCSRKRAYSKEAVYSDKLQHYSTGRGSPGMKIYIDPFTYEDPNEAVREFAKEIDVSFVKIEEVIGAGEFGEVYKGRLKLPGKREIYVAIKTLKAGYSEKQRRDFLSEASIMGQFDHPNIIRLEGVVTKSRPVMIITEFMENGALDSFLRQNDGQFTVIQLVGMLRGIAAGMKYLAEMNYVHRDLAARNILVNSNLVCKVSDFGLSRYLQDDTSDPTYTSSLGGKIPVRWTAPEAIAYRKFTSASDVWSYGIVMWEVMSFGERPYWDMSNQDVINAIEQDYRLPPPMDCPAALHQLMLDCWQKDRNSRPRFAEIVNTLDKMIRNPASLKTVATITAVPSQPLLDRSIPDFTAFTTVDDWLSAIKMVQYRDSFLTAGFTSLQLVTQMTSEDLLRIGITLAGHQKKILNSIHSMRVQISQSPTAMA
Chain of Fyn (P06241 whole entry, looked up): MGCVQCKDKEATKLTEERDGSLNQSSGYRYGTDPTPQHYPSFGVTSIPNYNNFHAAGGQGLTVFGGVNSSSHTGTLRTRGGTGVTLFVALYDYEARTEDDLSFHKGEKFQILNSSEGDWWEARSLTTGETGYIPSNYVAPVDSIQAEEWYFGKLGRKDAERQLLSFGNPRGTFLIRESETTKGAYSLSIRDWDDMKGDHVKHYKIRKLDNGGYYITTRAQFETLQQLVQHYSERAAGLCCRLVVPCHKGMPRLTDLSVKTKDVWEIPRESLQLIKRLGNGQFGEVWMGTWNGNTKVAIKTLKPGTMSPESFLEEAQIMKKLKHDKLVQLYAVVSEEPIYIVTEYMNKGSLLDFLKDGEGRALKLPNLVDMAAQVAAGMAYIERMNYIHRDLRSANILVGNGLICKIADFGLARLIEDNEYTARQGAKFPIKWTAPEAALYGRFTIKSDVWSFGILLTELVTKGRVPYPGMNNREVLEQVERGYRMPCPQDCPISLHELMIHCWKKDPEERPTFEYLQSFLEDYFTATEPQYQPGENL
Chain of Jak2 (O60674 whole entry, looked up): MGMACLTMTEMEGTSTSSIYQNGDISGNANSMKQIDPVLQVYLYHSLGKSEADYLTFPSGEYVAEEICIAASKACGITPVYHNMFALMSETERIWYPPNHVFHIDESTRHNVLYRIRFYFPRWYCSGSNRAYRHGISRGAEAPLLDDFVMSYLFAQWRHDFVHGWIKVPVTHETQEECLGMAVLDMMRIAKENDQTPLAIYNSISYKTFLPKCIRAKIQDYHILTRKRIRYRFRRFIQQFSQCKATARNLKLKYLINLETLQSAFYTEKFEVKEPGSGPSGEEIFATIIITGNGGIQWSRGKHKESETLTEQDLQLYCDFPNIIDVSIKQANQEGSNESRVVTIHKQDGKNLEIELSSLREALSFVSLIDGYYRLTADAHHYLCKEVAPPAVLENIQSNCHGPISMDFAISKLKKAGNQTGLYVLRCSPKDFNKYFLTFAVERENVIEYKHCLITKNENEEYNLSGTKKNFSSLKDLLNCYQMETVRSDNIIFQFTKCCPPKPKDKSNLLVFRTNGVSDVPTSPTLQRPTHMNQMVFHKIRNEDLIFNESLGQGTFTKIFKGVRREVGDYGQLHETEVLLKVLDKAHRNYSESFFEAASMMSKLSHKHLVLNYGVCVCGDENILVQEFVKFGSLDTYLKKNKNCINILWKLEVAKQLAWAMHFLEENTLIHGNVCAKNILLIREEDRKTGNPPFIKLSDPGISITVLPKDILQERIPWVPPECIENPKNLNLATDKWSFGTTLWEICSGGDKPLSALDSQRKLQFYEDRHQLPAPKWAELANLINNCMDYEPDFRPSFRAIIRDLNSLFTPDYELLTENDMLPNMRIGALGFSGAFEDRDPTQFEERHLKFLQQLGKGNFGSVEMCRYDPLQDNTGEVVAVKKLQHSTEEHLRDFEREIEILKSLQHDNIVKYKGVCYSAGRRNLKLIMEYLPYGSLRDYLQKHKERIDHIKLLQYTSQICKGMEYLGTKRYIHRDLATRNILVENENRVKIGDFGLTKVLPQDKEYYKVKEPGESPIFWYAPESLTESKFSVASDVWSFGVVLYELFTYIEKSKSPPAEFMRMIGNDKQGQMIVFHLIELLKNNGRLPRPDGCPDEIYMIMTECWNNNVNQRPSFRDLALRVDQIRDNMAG
Chain of Hck (P08631 whole entry, looked up): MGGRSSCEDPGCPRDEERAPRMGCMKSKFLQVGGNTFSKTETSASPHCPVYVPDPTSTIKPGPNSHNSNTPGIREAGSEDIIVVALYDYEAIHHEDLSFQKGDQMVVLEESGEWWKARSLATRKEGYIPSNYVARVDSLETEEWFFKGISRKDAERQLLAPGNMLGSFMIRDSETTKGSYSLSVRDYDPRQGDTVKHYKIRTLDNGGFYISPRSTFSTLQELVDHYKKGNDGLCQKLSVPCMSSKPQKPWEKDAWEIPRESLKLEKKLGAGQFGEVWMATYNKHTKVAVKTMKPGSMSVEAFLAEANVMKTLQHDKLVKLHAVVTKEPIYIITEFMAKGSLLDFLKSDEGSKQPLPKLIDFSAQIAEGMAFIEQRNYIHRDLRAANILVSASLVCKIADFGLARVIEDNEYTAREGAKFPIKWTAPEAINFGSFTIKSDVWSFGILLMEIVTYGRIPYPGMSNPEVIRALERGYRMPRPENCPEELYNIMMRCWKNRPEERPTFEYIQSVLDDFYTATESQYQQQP

| SH2 binding enrichment [14] | SH2 binding enrichment [15] | SH2 binding enrichment [16] | Sequence | phosphorylation enrichment [1] | phosphorylation enrichment [2] | phosphorylation enrichment [3] | phosphorylation enrichment [4] | phosphorylation enrichment [5] | phosphorylation enrichment [6] | phosphorylation enrichment [7] | phosphorylation enrichment [8] | phosphorylation enrichment [9] | phosphorylation enrichment [10] | phosphorylation enrichment [11] | phosphorylation enrichment [12] | phosphorylation enrichment [13] |
| --- | --- | --- | --- | --- | --- | --- | --- | --- | --- | --- | --- | --- | --- | --- | --- | --- |
| 0.828 | 0.661 | 0.503 | VDGSLYETHPQ [HK1_Y417_K418E] | 1.26 | 1.5 | 2.37 | 0.441 | 0.607 | 9.06 | 0.861 | 1.13 | 2.09 | 0.653 | 1.18 | 0.541 | 0.918 |
| 0.944 | 1.01 | 0.743 | VDGSVYELHPS [GCK_Y413_K414E] | 1.56 | 2.35 | 3.42 | 0.597 | 0.676 | 16 | 1.09 | 12.1 | 8.06 | 0.981 | 3.82 | 0.94 | 9.02 |
| 0.601 | 0.626 | 0.388 | VDTFWYKFLKP [EPM2A_Y86_R91P] | 0.982 | 0.644 | 0.533 | 0.463 | 0.808 | 0.515 | 1.28 | 0.388 | 0.426 | 1.05 | 0.471 | 0.694 | 0.43 |
| 0.774 | 0.569 | 0.439 | VDTRAYLTSAT [MT-CO1_Y304_F305L] | 0.671 | 0.589 | 0.438 | 0.518 | 0.723 | 0.488 | 0.763 | 0.436 | 0.377 | 0.603 | 0.393 | 0.637 | 0.414 |
| 0.697 | 0.506 | 0.402 | VEDHDYEGGIG [TKT_Y564_Y563D] | 1.49 | 0.737 | 0.785 | 0.571 | 0.874 | 0.602 | 1.45 | 0.518 | 0.609 | 1.24 | 0.517 | 1.01 | 0.624 |
| 0.64 | 0.648 | 0.424 | VEEDTYTMPST [PTK2_Y407_D402V] | 4.74 | 0.879 | 0.675 | 0.697 | 0.984 | 0.741 | 1.31 | 6.55 | 3.5 | 1.12 | 1.6 | 1.18 | 4.81 |
| 0.79 | 1.02 | 7.71 | VEGIGYDFIPT [CBS_Y308] | 1.04 | 0.579 | 0.576 | 0.588 | 0.685 | 0.43 | 1.12 | 0.594 | 0.785 | 0.827 | 0.501 | 0.723 | 0.539 |
| 0.927 | 0.755 | 0.544 | VFAPDYIAGVS [NOB1_Y366] | 1.05 | 0.657 | 0.646 | 0.537 | 0.807 | 0.647 | 1.38 | 0.585 | 0.651 | 0.934 | 0.547 | 0.844 | 0.55 |
| 1.01 | 0.971 | 0.679 | VFGEEYEEQPR [ZMYM2_Y1033] | 1.39 | 0.585 | 0.767 | 0.614 | 0.731 | 0.514 | 1.39 | 0.534 | 0.526 | 1.23 | 0.386 | 0.709 | 0.443 |
| 1.04 | 0.722 | 0.519 | VFPATYHPDHW [EFCAB12_Y544_YF] | 0.677 | 0.678 | 0.383 | 0.467 | 0.542 | 0.347 | 0.792 | 0.469 | 0.421 | 0.629 | 0.385 | 0.604 | 0.458 |
| 0.641 | 0.547 | 0.361 | VGEGPYLLSDL [ABCC12_Y7_I9L] | 0.839 | 0.461 | 0.559 | 0.484 | 0.605 | 0.508 | 0.941 | 0.565 | 0.432 | 0.83 | 0.385 | 0.586 | 0.71 |
| 0.909 | 0.778 | 0.45 | VGGRIYIDDGL [PKLR_Y218] | 0.742 | 0.493 | 0.431 | 0.575 | 0.539 | 0.681 | 0.885 | 0.459 | 0.463 | 0.91 | 0.383 | 0.727 | 0.493 |
| 1.11 | 0.668 | 0.457 | VHNLDYFKETT [FGFR3_Y647_K650E_YF] | 0.853 | 0.469 | 0.5 | 0.597 | 0.614 | 0.438 | 0.854 | 0.437 | 0.446 | 0.723 | 0.425 | 0.598 | 0.445 |
| 0.995 | 0.556 | 0.56 | VHNLDYFKMTT [FGFR3_Y647_K650M_YF] | 1.06 | 0.456 | 0.383 | 7 | 4.21 | 0.325 | 0.653 | 0.33 | 0.394 | 7.7 | 0.356 | 0.521 | 0.397 |
| 0.999 | 1.01 | 0.766 | VIKDKYPKAHF [APTX_Y209_R213H_YF] | 0.523 | 0.285 | 0.3 | 0.38 | 0.387 | 0.355 | 0.493 | 0.389 | 0.284 | 0.534 | 0.356 | 0.514 | 0.369 |
| 1.31 | 1.05 | 1.25 | VIKDKYPKARY [APTX_Y209] | 0.728 | 0.376 | 0.417 | 0.44 | 0.551 | 0.426 | 0.699 | 0.256 | 0.373 | 0.83 | 0.38 | 0.692 | 0.454 |
| 0.739 | 0.54 | 0.454 | VILENYGADID [DNAH5_Y596_L591V] | 1.06 | 0.555 | 0.589 | 0.557 | 0.719 | 0.492 | 1.11 | 0.653 | 0.515 | 1.13 | 0.641 | 0.674 | 0.5 |

| SH2 binding enrichment [14] | SH2 binding enrichment [15] | SH2 binding enrichment [16] | Sequence | phosphorylation enrichment [1] | phosphorylation enrichment [2] | phosphorylation enrichment [3] | phosphorylation enrichment [4] | phosphorylation enrichment [5] | phosphorylation enrichment [6] | phosphorylation enrichment [7] | phosphorylation enrichment [8] | phosphorylation enrichment [9] | phosphorylation enrichment [10] | phosphorylation enrichment [11] | phosphorylation enrichment [12] | phosphorylation enrichment [13] |
| --- | --- | --- | --- | --- | --- | --- | --- | --- | --- | --- | --- | --- | --- | --- | --- | --- |
| 0.888 | 0.862 | 0.615 | VITTLYIGFLG [KCNQ1_Y267_L262V] | 1.18 | 0.759 | 0.636 | 0.692 | 0.874 | 0.605 | 1.25 | 1.34 | 1.32 | 1.15 | 0.659 | 0.931 | 1.84 |
| 0.814 | 0.558 | 0.466 | VKGGAYNPVTV [MCCC2_Y145_Y146N] | 0.552 | 0.471 | 0.372 | 0.447 | 0.469 | 0.526 | 0.644 | 0.456 | 0.434 | 0.781 | 0.471 | 0.609 | 0.511 |
| 0.781 | 0.671 | 0.486 | VKPHRYRPGTV [H3-5_Y41] | 0.513 | 0.378 | 0.337 | 0.407 | 0.346 | 0.362 | 0.573 | 0.386 | 0.328 | 0.494 | 0.456 | 0.613 | 0.434 |
| 1.24 | 1.22 | 1.02 | VLALWYYYLTN [ZDHHC23_Y127_H132N] | 1.29 | 1.1 | 0.851 | 8.15 | 6.91 | 0.766 | 1.81 | 0.611 | 0.738 | 3.09 | 3.86 | 1.05 | 1.35 |
| 0.962 | 0.85 | 1.03 | VLPIDYYFPPQ [AR_Y552] | 4.75 | 3.48 | 3.36 | 15.4 | 12.6 | 0.694 | 1.08 | 0.687 | 0.869 | 6.26 | 2.47 | 1.06 | 1.28 |
| 1.39 | 0.841 | 0.524 | VLTSKYRGGGG [HBA1_Y141] | 0.386 | 0.475 | 0.278 | 0.332 | 0.468 | 0.374 | 0.911 | 0.366 | 0.563 | 0.454 | 0.556 | 0.494 | 0.435 |
| 1.59 | 1.52 | 0.837 | VMIFAYLLHRG [PTEN_Y138_C136Y_YF] | 0.807 | 0.447 | 0.392 | 0.383 | 0.422 | 0.378 | 0.828 | 0.352 | 0.406 | 0.739 | 0.325 | 0.781 | 0.415 |
| 1.04 | 1.46 | 0.741 | VNFDYYTVNLG [GFPT1_Y367_D366Y] | 5.81 | 6.6 | 5.41 | 15.6 | 14.5 | 6.01 | 1.25 | 5.83 | 4.22 | 9.69 | 4.02 | 1.36 | 4.7 |
| 1.14 | 0.919 | 0.498 | VNKIFYPDFIV [LIG3_Y768_YF] | 1 | 0.465 | 0.928 | 0.49 | 0.584 | 0.5 | 1.08 | 0.464 | 0.529 | 0.811 | 0.518 | 0.612 | 0.432 |
| 0.984 | 0.533 | 0.564 | VNNTVYGIDAM [EIF3J_Y143_A141T] | 0.724 | 0.479 | 0.429 | 0.512 | 0.461 | 0.423 | 0.698 | 0.907 | 0.626 | 0.696 | 0.349 | 0.616 | 0.596 |
| 0.861 | 9.3 | 8.52 | VNQSGYTLIRK [ATP6V0A2_Y688_R685Q] | 0.572 | 0.42 | 0.478 | 0.452 | 0.465 | 0.401 | 0.563 | 0.387 | 0.476 | 0.538 | 0.433 | 0.391 | 0.418 |
| 0.765 | 0.648 | 3.31 | VPANRYDLLRL [FARSB_Y72_C76R] | 0.519 | 0.424 | 0.403 | 0.414 | 0.58 | 0.452 | 0.65 | 0.39 | 0.429 | 0.54 | 0.451 | 0.498 | 0.393 |
| 1.8 | 2.12 | 1.68 | VPLLEYFWDIF [CDAN1_Y712_R714W_YF] | 1.02 | 0.455 | 0.469 | 3.61 | 2.73 | 0.439 | 1.16 | 0.449 | 0.432 | 1.12 | 0.413 | 0.666 | 0.411 |
| 0.911 | 0.968 | 1.05 | VPLLEYYRDIF [CDAN1_Y712] | 0.998 | 0.564 | 0.647 | 3.63 | 2.83 | 0.544 | 1.24 | 0.444 | 0.508 | 2.64 | 0.441 | 0.728 | 0.553 |
| 0.539 | 0.476 | 0.391 | VREIRYQGGNR [VWF_Y1570] | 0.597 | 0.329 | 0.511 | 0.378 | 0.382 | 0.402 | 0.653 | 0.421 | 0.42 | 0.968 | 0.522 | 0.615 | 0.495 |
| 0.972 | 0.67 | 0.536 | VRVQLYDPDFM [CYP4A22_Y100_Y104F] | 1.06 | 0.717 | 0.631 | 0.45 | 0.683 | 0.579 | 1.17 | 0.419 | 0.561 | 1.07 | 1.08 | 0.734 | 0.579 |
